Experimental data as given in publication doi:10.1101/2023.02.11.528153.

Target: MERS-CoV spike RBD fragment (human betacoronavirus 2c EMC/2012 …, UniProt K0BRG7 367-606)
Assay: MST

B1: Labeled complementary strand (ssDNA)
DNA: ACATAGGCGTT
binding result: no binding
